Experimental data taken from the supplement of paper PMC10567573.

B1: GAGE1 (parent)
chain: RPRRYVQPPEMIGPMRPEQFSDEV

Variants of: B1
Assay: protein stability index of a GFP-peptide fusion (GPS, HEK-293T) (PSI 1-6); higher = more stable
Conditions: c terminus: a fixed tail appended
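Also: lentivirally expressed fusions sorted by FACS into six bins by GFP to DsRed ratio, PSI derived from sequencing read proportions per bin multiplied by bin number.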

Variant	protein stability index
RPRRYVQPPEMIGPMRPESFSDEV [Q19S]	3.82
RPRRYVQPPEMIGPMRPEGFSDEV [Q19G]	4.28
RPRRYVQPPEMIGPMRPENFSDEV [Q19N]	3.79
RPRRYVQPPEMIGPMRPEMFSDEV [Q19M]	3.58
RPRRYVQPPEMIGPMRPEPFSDEV [Q19P]	4.11
RPRRYVQPPEMIGPMRPERFSDEV [Q19R]	3.71
RPRRYVQPPEMIGPMRPEVFSDEV [Q19V]	3.78
RPRRYVQPPEMIGPMRPEWFSDEV [Q19W]	3.12
RPRRYVQPPEMIGPMRPETFSDEV [Q19T]	4.09
RPRRYVQPPEMIGPMRPEYFSDEV [Q19Y]	3.92
RPRRYVQPPEMIGPMRPEEFSDEV [Q19E]	3.51
RPRRYVQPPEMIGPMRPELFSDEV [Q19L]	3.63
RPRRYVQPPEMIGPMRPEDFSDEV [Q19D]	3.69
RPRRYVQPPEMIGPMRPEKFSDEV [Q19K]	3.98
RPRRYVQPPEMIGPMRPECFSDEV [Q19C]	4.16
RPRRYVQPPEMIGPMRPEFFSDEV [Q19F]	3.62
RPRRYVQPPEMIGPMRPEAFSDEV [Q19A]	3.71
RPRRYVQPPEMIGPMRPEIFSDEV [Q19I]	3.78
RPRRYVQPPEMIGPIRPEQFSDEV [M15I]	4.12
RPRRYVQPPEMIGPERPEQFSDEV [M15E]	4.78
RPRRYVQPPEMIGPARPEQFSDEV [M15A]	4.21
RPRRYVQPPEMIGPHRPEQFSDEV [M15H]	3.69
RPRRYVQPPEMIGPGRPEQFSDEV [M15G]	4.7
RPRRYVQPPEMIGPDRPEQFSDEV [M15D]	4.75

Variant	protein stability index
RPRRYVQPPEMIGPWRPEQFSDEV [M15W]	3.49
RPRRYVQPPEMIGPCRPEQFSDEV [M15C]	4.31
RPRRYVQPPEMIGPRRPEQFSDEV [M15R]	4.17
RPRRYVQPPEMIGPLRPEQFSDEV [M15L]	3.95
RPRRYVQPPEMIGPVRPEQFSDEV [M15V]	4.49
RPRRYVQPPEMIGPNRPEQFSDEV [M15N]	3.97
RPRRYVQPPEMIGPPRPEQFSDEV [M15P]	4.31
RPRRYVQPPEMIGPYRPEQFSDEV [M15Y]	4
RPRRYVQPPEMIGPSRPEQFSDEV [M15S]	4.84
RPRRYVQPPEMIGPKRPEQFSDEV [M15K]	4.48
RPRRYVQPPEMIGPFRPEQFSDEV [M15F]	3.89
RPRRYVQPPEMIGPQRPEQFSDEV [M15Q]	4.58
RPRRYVQPPEMIGPTRPEQFSDEV [M15T]	4.72
RPRRYVQPPEWIGPMRPEQFSDEV [M11W]	3.91
RPRRYVQPPENIGPMRPEQFSDEV [M11N]	3.38
RPRRYVQPPEPIGPMRPEQFSDEV [M11P]	4.53
RPRRYVQPPEFIGPMRPEQFSDEV [M11F]	4.05
RPRRYVQPPESIGPMRPEQFSDEV [M11S]	3.54
RPRRYVQPPEDIGPMRPEQFSDEV [M11D]	3.53
RPRRYVQPPEKIGPMRPEQFSDEV [M11K]	4.15
RPRRYVQPPEEIGPMRPEQFSDEV [M11E]	3.88
RPRRYVQPPERIGPMRPEQFSDEV [M11R]	4.22
RPRRYVQPPEQIGPMRPEQFSDEV [M11Q]	3.84
RPRRYVQPPEVIGPMRPEQFSDEV [M11V]	3.46

Variant	protein stability index
RPRRYVQPPETIGPMRPEQFSDEV [M11T]	3.74
RPRRYVQPPEAIGPMRPEQFSDEV [M11A]	4.34
RPRRYVQPPEHIGPMRPEQFSDEV [M11H]	4.37
RPRRYVQPPEYIGPMRPEQFSDEV [M11Y]	3.82
RPRRYVQPPEGIGPMRPEQFSDEV [M11G]	4.44
RPRRYVQPPELIGPMRPEQFSDEV [M11L]	3.4
RPRRYVQPPEIIGPMRPEQFSDEV [M11I]	3.38
RPRRYVQPPECIGPMRPEQFSDEV [M11C]	3.56
RPRRYVQPPEMIGPMRPMQFSDEV [E18M]	3.45
RPRRYVQPPEMIGPMRPFQFSDEV [E18F]	3.34
RPRRYVQPPEMIGPMRPWQFSDEV [E18W]	3.16
RPRRYVQPPEMIGPMRPPQFSDEV [E18P]	3.6
RPRRYVQPPEMIGPMRPVQFSDEV [E18V]	3.32
RPRRYVQPPEMIGPMRPDQFSDEV [E18D]	3.48
RPRRYVQPPEMIGPMRPNQFSDEV [E18N]	3.66
RPRRYVQPPEMIGPMRPGQFSDEV [E18G]	3.86
RPRRYVQPPEMIGPMRPQQFSDEV [E18Q]	3.56
RPRRYVQPPEMIGPMRPTQFSDEV [E18T]	3.84
RPRRYVQPPEMIGPMRPYQFSDEV [E18Y]	3.51
RPRRYVQPPEMIGPMRPSQFSDEV [E18S]	3.33
RPRRYVQPPEMIGPMRPHQFSDEV [E18H]	3.46
RPRRYVQPPEMIGPMRPKQFSDEV [E18K]	3.43
RPRRYVQPPEMIGPMRPAQFSDEV [E18A]	3.81
RPRRYVQPPEMIGPMRPRQFSDEV [E18R]	3.57

Variant	protein stability index
RPRRYVQPPEMIGPMRPLQFSDEV [E18L]	3.52
RPRRYVQPPEMIGPMRPIQFSDEV [E18I]	3.13
RPRRYVQPPEMIGPMRPCQFSDEV [E18C]	3.21
RPRRYVQPPEMIGKMRPEQFSDEV [P14K]	3.71
RPRRYVQPPEMIGIMRPEQFSDEV [P14I]	4.13
RPRRYVQPPEMIGRMRPEQFSDEV [P14R]	4.31
RPRRYVQPPEMIGTMRPEQFSDEV [P14T]	4.44
RPRRYVQPPEMIGVMRPEQFSDEV [P14V]	4.2
RPRRYVQPPEMIGGMRPEQFSDEV [P14G]	3.97
RPRRYVQPPEMIGFMRPEQFSDEV [P14F]	3.54
RPRRYVQPPEMIGCMRPEQFSDEV [P14C]	3.68
RPRRYVQPPEMIGQMRPEQFSDEV [P14Q]	4.23
RPRRYVQPPEMIGWMRPEQFSDEV [P14W]	3.58
RPRRYVQPPEMIGEMRPEQFSDEV [P14E]	4.41
RPRRYVQPPEMIGNMRPEQFSDEV [P14N]	4.2
RPRRYVQPPEMIGLMRPEQFSDEV [P14L]	3.48
RPRRYVQPPEMIGHMRPEQFSDEV [P14H]	4.31
RPRRYVQPPEMIGAMRPEQFSDEV [P14A]	4.38
RPRRYVQPPEMIGSMRPEQFSDEV [P14S]	4.13
RPRRYVQPPEMIGYMRPEQFSDEV [P14Y]	4.26
RPRRYVQPPEMIGMMRPEQFSDEV [P14M]	3.6
RPRRYVQPPEMIGDMRPEQFSDEV [P14D]	4.54
